{"source": "the DeepSol protein solubility set"}
{"experiment": "soluble on expression in E. coli; label from the status in PepcDB or PDB records"}
{"sequence": "KDEIGVIGIDDAPFNKFDKEALIVGTYMRGNKLVDEISFKKIEKDGFDSTEKILKIVKDKHFTKINAIFLDGVTFGGFNIADIVKIYNETKIPVIAVMEKEPDLLKMKSALKKYFFDFPEKIEMLESFPKPEPFENIFIQCIGISFEDACKLIKKTRLRSKIPECLRISHLVGRGFLNME", "soluble on expression in E. coli": "not soluble"}
{"sequence": "MKQVKIMFLMTMFLGIGLLFFSENAEAAITSNEIGTHDGYDYEFWKDSGGSGSMTLNSGGTFSAQWSNVNNILFRKGKKFDETQTHQQIGNMSINYGATYNPNGNSYLTVYGWTVDPLVEFYIVDSWGTWRPPGGTPKGTINVDGGTYQIYETTRYNQPSIKGTATFQQYWSVRTSKRTSGTISVSEHFRAWESLGMNMGNMYEVALTVEGYQSSGSANVYSNTLTIGGQSGGEQATRVEAESMTKGGPYTSNITSPFNGVALYANGDNVSFNHSFTKANSSFSLRGASNNSNMARVDLRIGGQNRGTFYFGDQYPAVYTINNINHGIGNQLVELIVTADDGTWDAYLDYLEIR", "soluble on expression in E. coli": "soluble"}
{"sequence": "MSLADKLSLETLESWLWESANILRGSIDSSDFKNYIFGLLFLKRYNDVFDERVTKLREEENLSYGEAQEEIEDKWGKYPISARWFDLISRTENIGEALDKAFATIEANNPELQHVLTATQYGDKRVLADATLQRLLRHFNQYKLGNDDLYKADMLGDAYEYLIKQFADDAGKKGGEFYTPKAVVQLVVELIDPRPGHSVYDPTCGSGGMLVESAHHVSGLPDGTLMGKPNVLLYGQEKNLGTWAIAKLNLYLHNMHASIERGDTLVEPKHLDGDYLKTFDRVIANPPFSAKSWWTPLELSNENEQENGKKVKAPNYKQVSDPYGRLVYGVPPRGYADLAFAQHMLASLKADGRMGVILPHGVLFRSGEEGKIREGLLFGTGAASGNQPGDVIEAIVGLPSALFYNTGIPACVLILNKQKPSALKDKVIIIDGSRDYLEGKAQNSLHAEDILRIVSTHKAAFEQQVEVENYCRLVTLDEIRSNDGNLNIVRYIDNGESDEVVNVAATLAHMATLAKEEAQIDQRLNRYLMELGLLETGEGHHHHHH", "soluble on expression in E. coli": "soluble"}
{"sequence": "MRIEVKLLPLKDNPILPFNYNYEVYSQILEKVNSIEPTIAKLLSSPHGFWTFSRIIVRKRKILPDKGIEILSDDVSLYISSSNEDIIRAIAEAVEKSPEFKIGELSFLVGDIKAIKVKELGKENVFSTLSPIVVRTVKFEGNKLRHWDLYPHDELFMDRLRKVMILRYSEVMGETPKDRDFTIEVLKFKPTRLMVGSSYIRGSLMVFRYAGSEEIARFGYENGFGEKTGLGFGMVKLIE", "soluble on expression in E. coli": "soluble"}
{"sequence": "MSHVQAVIFDAFGTITRIENARHPFRQLLKLGIAQGRRPKPDDASMLMRHPWGLAQAADHFGIDVTPAELARIQAELDAEVASIQPFADALACIEALQAHGLKVAVCSNLARPYGAAVKRIFPGLESYGFSYEIGTLKPDRRIYEAALTELAVDACKVWMIGDSQRCDRDGPIALGIKGHYLNRTGAGSPSDFRDLMAFKHSVFESRSP", "soluble on expression in E. coli": "not soluble"}
{"sequence": "MGSDKIHHHHHHMALANFIDRAATAASQVLADFHLEDFKAALEKQVVAVAFDDQAASCAEGQATLDLAVRLLARLYPVLAILPLGSAASFQAQALERLAKSINPKVGIRRSGKSATICVVAGVTRPPLRCPTFFMGSDGWAAKLSRTDPVGSGSSLLPYGAGAASCFGAANVFRTIFAAQLTGAELDETIDLSLYSYDKTKAGEAGPIDIPVDLGETHLVGLGAIGHGSLWALARQPGLTGRLHVIDHEAIELSNLQRYVLAGQAEIGMSKAVLAATALRSTAIGVEAHPLTWAEYVARHGDWVFDRVGVALDTAADRLAVQGALPRWIANAWTQEHDLGISRHGFDDGQACLCCMYLPSGKSKDEHHLIAEELGIPEAHEQVKTLLQTNAGVPNDFVVRVATAMAVPFEPLAPFVGQPLRSFYQQAICGGLVFQLSDGSRRVRTVVPMAFQSALAGIMLAAELVKHSAGFPVGPTTSTRVNLLRPLGSRLHDPKAKDSSGRCICSDDDFIAAYRRKYGKSIVQLSDVSAA", "soluble on expression in E. coli": "not soluble"}
{"sequence": "MPHFYEYLEFNRDEDREHQLDVYVGVQLEADTIAKITALETASEWLIMAEPYCPDCVEVVAYFQRISQLNPAINVKYVARKDNTQRHYFDSDRQQQAVIAVEKIPAIFNISSAETELVLAEFPAFLKAEMAEHPMQFDALKADFRMGKFGKRLEAELVEILTR", "soluble on expression in E. coli": "not soluble"}
{"sequence": "MIKTFKSKALAELYETGSSSKTDKKLFKRIIVRLDRLNVAEKPEEMNLPGFNFHALIGFHPIRYTVHINGPWCITFEFDSCNAYRVDLEQYH", "soluble on expression in E. coli": "not soluble"}
{"sequence": "MAHHHHHHMLEFLVTTQPSRRIVCRNEATYIYFWPYLFSREVPGALQLCRWAARRGAAVHGAVRLQPSETPNAAHRCYLTVTRPVAAGRTLISLPAALSLSVSSPESRKGTFIGRYSALESFAQLLARELHNPRSPHRAYLEFLHDLHNSGTDEVSDALLAGLRYERAAVLVDQLDAMYAGNSLQARGAANAPFLDKEQLTSASQRVEWVRLHQLQRRLEQGVPHFAAKSTAWALSMALSRAMEDDAEGLSLYPLIDFCAHSFEPNAYICVGEDERIAATRPVRWADSSGEPLLHVVTRRLLHAGEKVTLRWHWRPVKTTEDAEFWQMRFGYVPQSE", "soluble on expression in E. coli": "not soluble"}
{"sequence": "MNTVCTHCQAINRIPDDRLQDAAKCGRCGHELFDGEVINATGETLDKLLKDDLPVVIDFWAPWCGPCRNFAPIFEDVAEERSGKVRFVKVNTEAERELSARFGIRSIPTIMIFKHGQVVDMLNGAVPKAPFDSWLNEAL", "soluble on expression in E. coli": "not soluble"}
{"sequence": "MALHQRMFSGNKINIVRKNHPLFLGYLNEQLCAYASAQLSQKEGRLLYLGVDEKYRQQGIATALMAQVWNFLHDSCQDKITLVQSDKAQAAGKLYKKLGFKTIRRLLSAQLIVN", "soluble on expression in E. coli": "not soluble"}
{"sequence": "MGSDKIHHHHHHMDNPRSIRVHASELEVGRPLSWAVYDENGVLLLNKGMAPATEAQIIAMLQRGVFRQPGSGVGAGAAGSKSAIPPMGLGPSEDESKTRLTGDPIPFDDLAMQPGEVLQLHPALEVVAADVPAVLIGYLKDRAIVVATPMVSGKPLLVKDGTLFNIKTFSGTSLYNFRTRVLASHSHPMPHLHLEYPRLVCQTKIRKALRALTDLPATLLNPASGDSRDVVLKDLSVGGAKIVLPEPVTCAKGDPFVVGFRIKIGDDLEEAIRADAVMCSAESRTGKETTVHTMSVQFKELPKSTSLAIMALVYRLQLRKG", "soluble on expression in E. coli": "not soluble"}
{"sequence": "MGSDKIHHHHHHMQNLSPTQREILLALTDLYNRQKRMIKSKEVADIIGKDEGTVRNIILSLKVLGLVESKPGPNGGYMPTLKAYEIINNPTLTPILDKLNLYKGMIETDIKVENIEIIDITNPSANRVLLKVEGDLRKLKIGDAVRLGPTPYSRLVIEGLILHLDENSKEIVVDVKRMISIPKEKVKNLISKKLIALKPETSLREASMIFYKEAIRGAPVINQDEKVVGILTTADIIKAFFEGNYTAKVSDYMKTNVISINENEDLLDAIRKMIIYNVGRLLVLDSNNKAVGIVTRTDILRSIAGLEGLWTT", "soluble on expression in E. coli": "not soluble"}
{"sequence": "MSPGAWPRPRVVVSACLGFAAVRYSGELIPDKVVAALKEHVDFVPVCPEVEIGLGVPRPVVRLVRGEGGGPRMVQPKTGEDLTERMRAFSQRFLQGLGEVEGFLLKNRSPSCALKDAKRYAHAEGGGVVGKGPGLFAQAVEEAFPLLPKEDEGRLTNPRIRAHFFTRIFALARLRRVEDLPGLMAFHARYKLLLLAYNQKEARALGRLLAGAKGRPFPEVHGAYEEGFLRATERPWRLGAMADALLHAFGHFKKALAPREKAHFLDLLADFREERLPLEAPLALLASWARRFAEPYVEAQALLEPYPRALMHVPGA", "soluble on expression in E. coli": "soluble"}
{"sequence": "AHHHHHHGSIILDNHFHVDPNHGLFLEAVKQFQRAGGTHLIVVYKTAHDYGFPGLKAEDFMKAMDFHIELVEKINRETQVKAYAVVGVHPAEFDYLARNKGLEFARNEVMKALEYAQKLCLEGKAVGIGEVGRPHYEVPQQIWEVSIEIMKYAMELAKDADCAVQLHTESFNEEKFRELGEYIREVGIKPYKVVKHFSPPLVNVAKEVGVFPSIIASKKNIEEAIKQGNRFLMETDYIDDKRRPGAVLGPKTVPKRTKEFLQRGIFTEEDVYKIHVENPKKVYGIEI", "soluble on expression in E. coli": "not soluble"}
{"sequence": "IKDFNYGVKFVLSDDQRKVTRYPNEELNRNQWYAGRMDGLVWGYETVGIAKTDAEMEAHLASLPNGGQSQLGSKWAAGDIMYKDLNGDGKISSGDGTLNDLGDLKVVANTQLRFKYGLTLDASWKGFDFSAFFQGVGKRDVVVGGPYFWGANGQGMWQAAAFKDHMDYFRPEDTESVFGPNVDAYYPRVIFGGGSSEGGKNTLTQSRYVQNGAYIRLKNLQLGYTLPSTITKKFAVNSLRVYVSGDNLWTGTKMRVFDPEVLGSTGDAGKAYPLARVWSVGLNVNF", "soluble on expression in E. coli": "not soluble"}
{"sequence": "MSLNSESLGLLQEFLKTHKYKEFRDQAKNLRAPFILQAIVSTPTTVKYYTQGRLIKCCETDSTGNITTSYTYNDKGQLTTTLSVTEKNGQPINEVQTSRLYDPQGHCIFEVKTNPKTKTDFYRRARRIGIDGSIESDSLKYMDGRYTVSSYNKQGLLTETKEYNKNGEMEGYTVNKYDDKGRMTESQHQNMLFVNSPNQILSQKELYEYDKYGYLTRIVYQRIFGNSQKTSGCLTCLYDEYGNRIDGDSYYEYDNTGQWICRTSYDNPQQVERIQYIYKEGHHHHHH", "soluble on expression in E. coli": "not soluble"}
{"sequence": "MSSHESLFDYEATLQACARGEKQALQRLYLQESARLLGVAQRLVRDSALAEDIVHDAFLKIWTHAASFDASRGSARGWIFSVTRHLALNTLRNTAREVRVEDDGSDDHHEQATLEGWQETGDAFDWRVNPGRMISCMEQLEPVRRNCIFHAYVDGYSHQEIAQKIGAPLGTVKAWIKRSLTALRECMG", "soluble on expression in E. coli": "not soluble"}
{"sequence": "SMTLTLNRQLLTSRQILVAFSGGLDSTVLLHQLVQWRTENPGVALRAIHVHHGLSANADAWVTHCENVCQQWQVPLVVERVQLAQEGLGIEAQARQARYQAFARTLLPGEVLVTAQHLDDQCETFLLALKRGSGPAGLSAMAEVSEFAGTRLIRPLLARTRGELVQWARQYDLRWIEDESNQDDSYDRNFLRLRVVPLLQQRWPHFAEATARSAALCAEQESLLDELLADDLAHCQSPQGTLQIVPMLAMSDARRAAIIRRWLAGQNAPMPSRDALVRIWQEVALAREDASPCLRLGAFEIRRYQSQLWWIKSVTGQSENIVPWQTWLQPLELPAGLGSVQLNAGGDIRPPRADEAVSVRFKAPGLLHIVGRNGGRKLKKIWQELGVPPWLRDTTPLLFYGETLIAAAGVFVTQEGVAEGENGVSFVWQKTLS", "soluble on expression in E. coli": "soluble"}
{"sequence": "MSLTDRTIGEAAELLGVTTRTLRHWDSIGLLQPSWRTTTDYRLYTEDDVERALQILIYRAAGIGLKDIAEVLDQPDSANQHLRRQRELLVEQIGQLHRMVRAVDEILGKDAISVKEKIEIFGEDLPKYQEEAFQRWGDTPEWKESQKIQEKMTKEDFQRAKDEHEGFVEKLIDASLRGIAPGSAEGNELALAHRASIGQWYTVSANKQVILARMYVEDERFNETYKGHASYLLTLIEALAQVEGVDLENEGHHHHHH", "soluble on expression in E. coli": "not soluble"}
{"sequence": "MGSDKIHHHHHHMFTDYVLLLFSTTPRRAKGLFNVLRGRRTVSTLFAGLTAGYLDLLDSCHEVPLEDFMAATAALTENGQLTSTATGCWQLTQAGEHRQAKLRQTLYMPQNFEVFQTTDVRRFRIVSQLALQVVSELVHHDRHYYPVTTDPGIQAQVKQWLRQQSKVELGEQIHAALTAFLTSLADPELPTVFVQGITGYQEPGLTNEQLAAQLGRQPWEASLMHTDVICQWIAWIQRHPRDPFSQLLSVLTQASAISQSAEQTYQAFLKTQQLAAIAQTRHLKMSTVREHLLEVAIWSPDFPFEMVLNHEITQQLATIFAAQPDIANWSFQEAQAALPTLDFFEFRLFQIMRCQHVRR", "soluble on expression in E. coli": "not soluble"}
